Common to all, as to test: co-expression of chains A and B 1:1 in HEK293, Protein A, non-reduced SDS-PAGE band intensity
Assay [1] addresses Human IgG1-Fc, chain B with D356C+T366S+L368A+Y407V (human) [IgG part: P0DOX5].
Assay [2] shares this target. The source holds these as a separate data set.
In assay [3] the target is Human IgG1-Fc, chain B with D356C+T366S+L368A+Y407V+F405K (human) [IgG part: P0DOX5].
Assay [4] has the same target. This is another data set of the same source.
The target in assay [5] is Human IgG1-Fc, chain B with D356C+T366S+L368A+Y407V+F405K+K360E+Q347E (human) [IgG part: P0DOX5].
The target in assay [6] is Human IgG1-Fc, chain B with D356C+T366S+L368A+Y407V+F405K+Q347R (human) [IgG part: P0DOX5].
Assay [7] concerns the target Human IgG1-Fc, chain B with D356C+T366S+L368A+Y407V+K360E+Q347E (human) [IgG part: P0DOX5].
Assay [8] addresses Human IgG1-Fc, chain B with D356C+T366S+L368A+Y407V+Q347R (human) [IgG part: P0DOX5].
In assay [9] the target is ScFv-Fc fusion protein (anti-Her2 single chain antibody-Fc), chain A with Y349C+T366W.
Assay [10] addresses ScFv-Fc fusion protein, chain A with T366W+F405K.
The target in assay [11] is ScFv-Fc fusion protein, chain A with T366W+F405K+D399S.
In assay [12] the target is ScFv-Fc fusion protein, chain A with T366W+F405K+Y349D+S354D.
For assay [13], the target named is ScFv-Fc fusion protein, chain A with T366W+K409A.
The target of assay [14] is ScFv-Fc fusion protein, chain A with T366W+K409A+K392D.
In assay [15] the target is ScFv-Fc fusion protein, chain A with T366W+K409A+Y349D.
Assay [16] deals with ScFv-Fc fusion protein, chain A with T366W+K409A+Y349D+S354D.
In assay [17] the target is ScFv-Fc fusion protein, chain A with Y349C+T366W+F405K.
Assay [18] shares this target. This is another data set of the same source.
The target is the same in assay [19]. The source holds these as a separate data set.
The target of assay [20] is ScFv-Fc fusion protein, chain A with Y349C+T366W+F405K+K360E+Q347E.
Assay [21] has as its target ScFv-Fc fusion protein, chain A with Y349C+T366W+F405K+Q347R.
The target of assay [22] is ScFv-Fc fusion protein, chain A with Y349C+T366W+K409A.
Assay [23] has the same target. This is another data set of the same source.
The target is the same in assay [24]. This is another data set of the same source.
The target in assay [25] is ScFv-Fc fusion protein, chain A with Y349C+T366W+K409A+K360E+Q347E.
The target of assay [26] is ScFv-Fc fusion protein, chain A with Y349C+T366W+K409A+Q347R.
Assay [27] addresses ScFv-Fc fusion protein, chain A with Y349C+T366W+K409E.
Assay [28] deals with VhH-Fc fusion protein (camel single domain antibody variable region-Fc), chain B with D356C+T366S+L368A+Y407V+F405K.
Assay [29] deals with VhH-Fc fusion protein, chain B with D356C+T366S+L368A+Y407V.
Assay [30] concerns the target VhH-Fc fusion protein, chain B with T366S+L368A+Y407V+D399S+F405K.
The target of assay [31] is VhH-Fc fusion protein, chain B with T366S+L368A+Y407V+K409A+E357A.
Assay [32] addresses VhH-Fc fusion protein, chain B with T366S+L368A+Y407V+K409A+K392D.
Assay [33] deals with VhH-Fc fusion protein, chain B with T366S+L368G+Y407A+K409A.

Several values for one entry are separate records, joined by “and”; a condition that tells them apart may be missing. Equal values may be shown once. Read-outs that look alike come from different tables or passages of the source.

Among the data in EP4740966A1 are Fc homodimer (%), ScFv-Fc homodimer (%) and VhH-Fc homodimer (%) values, retold here.

Chain of ScFv-Fc fusion protein, chain A with Y349C+T366W+K409A (chain): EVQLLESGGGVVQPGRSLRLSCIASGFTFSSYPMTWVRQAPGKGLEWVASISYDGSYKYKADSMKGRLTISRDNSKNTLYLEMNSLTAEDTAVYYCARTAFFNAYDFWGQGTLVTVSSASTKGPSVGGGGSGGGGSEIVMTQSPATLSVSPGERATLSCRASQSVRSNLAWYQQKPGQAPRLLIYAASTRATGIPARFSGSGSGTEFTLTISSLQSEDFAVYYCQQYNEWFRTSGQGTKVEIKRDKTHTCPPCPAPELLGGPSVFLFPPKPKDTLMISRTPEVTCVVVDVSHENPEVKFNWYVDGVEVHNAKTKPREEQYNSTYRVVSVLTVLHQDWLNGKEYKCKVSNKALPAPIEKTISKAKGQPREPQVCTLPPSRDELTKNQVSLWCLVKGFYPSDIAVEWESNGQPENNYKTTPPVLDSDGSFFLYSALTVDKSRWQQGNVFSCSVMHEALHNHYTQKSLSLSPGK
Chain of ScFv-Fc fusion protein, chain A with Y349C+T366W+F405K (chain): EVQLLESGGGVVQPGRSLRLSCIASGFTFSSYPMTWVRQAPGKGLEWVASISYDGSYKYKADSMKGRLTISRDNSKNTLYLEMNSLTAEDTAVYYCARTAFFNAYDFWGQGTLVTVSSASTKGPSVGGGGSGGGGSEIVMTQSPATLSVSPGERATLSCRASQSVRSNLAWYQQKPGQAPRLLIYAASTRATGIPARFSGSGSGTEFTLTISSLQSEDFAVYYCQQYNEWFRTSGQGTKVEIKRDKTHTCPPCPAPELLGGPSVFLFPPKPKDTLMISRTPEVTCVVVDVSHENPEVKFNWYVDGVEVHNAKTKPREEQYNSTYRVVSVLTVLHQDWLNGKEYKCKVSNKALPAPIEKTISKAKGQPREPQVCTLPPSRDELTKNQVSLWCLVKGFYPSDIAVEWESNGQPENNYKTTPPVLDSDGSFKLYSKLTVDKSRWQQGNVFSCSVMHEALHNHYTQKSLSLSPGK
Chain of ScFv-Fc fusion protein (anti-Her2 single chain antibody-Fc), chain A with Y349C+T366W (chain): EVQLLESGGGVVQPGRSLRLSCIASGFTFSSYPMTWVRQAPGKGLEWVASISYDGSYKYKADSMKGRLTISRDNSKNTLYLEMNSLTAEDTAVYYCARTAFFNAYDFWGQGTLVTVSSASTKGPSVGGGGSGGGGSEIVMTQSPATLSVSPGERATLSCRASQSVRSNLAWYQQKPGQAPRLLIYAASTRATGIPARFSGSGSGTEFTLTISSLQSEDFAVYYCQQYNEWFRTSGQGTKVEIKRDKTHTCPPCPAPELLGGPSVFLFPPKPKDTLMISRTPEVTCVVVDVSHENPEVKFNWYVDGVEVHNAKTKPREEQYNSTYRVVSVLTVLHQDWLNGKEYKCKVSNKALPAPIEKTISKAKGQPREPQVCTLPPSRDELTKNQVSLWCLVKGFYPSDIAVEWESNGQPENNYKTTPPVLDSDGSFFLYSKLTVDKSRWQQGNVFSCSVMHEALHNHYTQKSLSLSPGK
Chain of ScFv-Fc fusion protein, chain A with T366W+K409A+K392D (chain): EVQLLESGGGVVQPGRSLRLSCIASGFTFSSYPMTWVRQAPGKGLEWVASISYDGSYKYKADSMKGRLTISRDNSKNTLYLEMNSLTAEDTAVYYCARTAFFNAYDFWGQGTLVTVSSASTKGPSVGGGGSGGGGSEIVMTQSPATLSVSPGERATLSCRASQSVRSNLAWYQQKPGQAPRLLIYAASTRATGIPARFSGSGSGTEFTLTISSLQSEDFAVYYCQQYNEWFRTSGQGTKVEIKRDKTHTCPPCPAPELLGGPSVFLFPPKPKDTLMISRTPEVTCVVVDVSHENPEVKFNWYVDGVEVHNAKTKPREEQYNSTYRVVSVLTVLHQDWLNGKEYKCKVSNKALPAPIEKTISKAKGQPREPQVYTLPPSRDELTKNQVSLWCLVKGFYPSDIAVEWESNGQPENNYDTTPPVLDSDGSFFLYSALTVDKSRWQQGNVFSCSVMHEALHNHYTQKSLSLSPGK
Chain of ScFv-Fc fusion protein, chain A with T366W+K409A+Y349D+S354D (chain): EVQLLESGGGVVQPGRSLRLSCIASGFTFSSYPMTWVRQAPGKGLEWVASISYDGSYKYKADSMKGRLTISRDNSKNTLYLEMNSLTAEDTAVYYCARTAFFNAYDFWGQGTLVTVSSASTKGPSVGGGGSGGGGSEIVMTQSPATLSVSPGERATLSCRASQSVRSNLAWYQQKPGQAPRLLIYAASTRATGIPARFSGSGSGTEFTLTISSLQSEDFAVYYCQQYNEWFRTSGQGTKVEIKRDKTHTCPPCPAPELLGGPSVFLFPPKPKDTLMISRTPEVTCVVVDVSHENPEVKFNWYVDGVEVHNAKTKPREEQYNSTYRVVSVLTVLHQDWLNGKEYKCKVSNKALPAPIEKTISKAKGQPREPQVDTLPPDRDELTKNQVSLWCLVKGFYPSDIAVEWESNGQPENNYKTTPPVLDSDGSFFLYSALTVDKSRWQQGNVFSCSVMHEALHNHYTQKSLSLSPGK
Chain of ScFv-Fc fusion protein, chain A with Y349C+T366W+K409A+K360E+Q347E (chain): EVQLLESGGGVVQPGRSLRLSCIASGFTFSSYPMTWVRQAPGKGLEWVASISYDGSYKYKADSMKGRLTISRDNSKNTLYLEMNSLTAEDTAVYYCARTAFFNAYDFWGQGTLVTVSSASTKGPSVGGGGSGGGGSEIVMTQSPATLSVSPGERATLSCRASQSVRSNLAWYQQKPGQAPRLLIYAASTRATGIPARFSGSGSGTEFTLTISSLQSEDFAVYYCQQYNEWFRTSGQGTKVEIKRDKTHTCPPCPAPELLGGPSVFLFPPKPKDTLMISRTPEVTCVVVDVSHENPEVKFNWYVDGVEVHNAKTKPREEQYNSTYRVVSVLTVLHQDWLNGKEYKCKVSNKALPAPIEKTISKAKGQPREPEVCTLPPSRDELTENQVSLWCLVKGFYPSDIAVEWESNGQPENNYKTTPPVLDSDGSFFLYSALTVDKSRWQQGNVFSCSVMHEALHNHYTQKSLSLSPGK
Chain of ScFv-Fc fusion protein, chain A with Y349C+T366W+K409E (chain): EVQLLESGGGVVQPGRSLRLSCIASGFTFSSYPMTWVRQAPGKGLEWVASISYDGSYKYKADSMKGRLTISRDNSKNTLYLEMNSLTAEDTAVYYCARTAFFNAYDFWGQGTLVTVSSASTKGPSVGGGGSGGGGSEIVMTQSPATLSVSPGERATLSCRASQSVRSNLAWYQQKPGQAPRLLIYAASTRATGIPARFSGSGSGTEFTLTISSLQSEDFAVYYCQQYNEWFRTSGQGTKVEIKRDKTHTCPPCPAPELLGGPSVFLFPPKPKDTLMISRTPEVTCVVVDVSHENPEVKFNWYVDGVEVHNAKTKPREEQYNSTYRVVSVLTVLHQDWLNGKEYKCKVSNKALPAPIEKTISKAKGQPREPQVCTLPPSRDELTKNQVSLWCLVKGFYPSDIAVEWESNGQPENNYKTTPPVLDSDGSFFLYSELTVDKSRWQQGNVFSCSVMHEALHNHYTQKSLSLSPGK
Chain of ScFv-Fc fusion protein, chain A with T366W+F405K+Y349D+S354D (chain): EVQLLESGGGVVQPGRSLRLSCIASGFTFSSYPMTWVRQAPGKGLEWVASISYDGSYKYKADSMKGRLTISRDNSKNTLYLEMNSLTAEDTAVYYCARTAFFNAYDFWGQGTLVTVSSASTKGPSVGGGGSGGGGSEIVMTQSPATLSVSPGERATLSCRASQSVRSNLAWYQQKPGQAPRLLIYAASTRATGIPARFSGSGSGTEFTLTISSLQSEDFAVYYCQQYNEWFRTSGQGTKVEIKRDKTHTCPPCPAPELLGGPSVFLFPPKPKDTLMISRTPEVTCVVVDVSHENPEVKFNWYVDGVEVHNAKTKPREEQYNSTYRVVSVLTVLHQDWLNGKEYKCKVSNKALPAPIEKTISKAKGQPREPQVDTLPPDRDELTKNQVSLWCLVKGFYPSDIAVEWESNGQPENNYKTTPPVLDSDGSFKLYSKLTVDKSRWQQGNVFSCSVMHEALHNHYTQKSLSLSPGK
Chain of ScFv-Fc fusion protein, chain A with T366W+F405K+D399S (chain): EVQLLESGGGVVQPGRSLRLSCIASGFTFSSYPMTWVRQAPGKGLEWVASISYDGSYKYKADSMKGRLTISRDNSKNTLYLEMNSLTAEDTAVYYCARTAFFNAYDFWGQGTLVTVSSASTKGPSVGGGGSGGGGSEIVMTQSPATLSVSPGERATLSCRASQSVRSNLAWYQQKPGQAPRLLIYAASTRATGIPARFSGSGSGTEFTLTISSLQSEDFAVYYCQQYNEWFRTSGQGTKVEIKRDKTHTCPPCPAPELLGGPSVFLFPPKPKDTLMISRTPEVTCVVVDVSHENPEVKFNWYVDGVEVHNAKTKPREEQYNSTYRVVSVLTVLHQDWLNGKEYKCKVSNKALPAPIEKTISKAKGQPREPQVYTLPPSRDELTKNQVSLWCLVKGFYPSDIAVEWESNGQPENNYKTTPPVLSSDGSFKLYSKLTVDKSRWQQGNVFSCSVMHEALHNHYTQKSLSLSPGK
Chain of ScFv-Fc fusion protein, chain A with T366W+F405K (chain): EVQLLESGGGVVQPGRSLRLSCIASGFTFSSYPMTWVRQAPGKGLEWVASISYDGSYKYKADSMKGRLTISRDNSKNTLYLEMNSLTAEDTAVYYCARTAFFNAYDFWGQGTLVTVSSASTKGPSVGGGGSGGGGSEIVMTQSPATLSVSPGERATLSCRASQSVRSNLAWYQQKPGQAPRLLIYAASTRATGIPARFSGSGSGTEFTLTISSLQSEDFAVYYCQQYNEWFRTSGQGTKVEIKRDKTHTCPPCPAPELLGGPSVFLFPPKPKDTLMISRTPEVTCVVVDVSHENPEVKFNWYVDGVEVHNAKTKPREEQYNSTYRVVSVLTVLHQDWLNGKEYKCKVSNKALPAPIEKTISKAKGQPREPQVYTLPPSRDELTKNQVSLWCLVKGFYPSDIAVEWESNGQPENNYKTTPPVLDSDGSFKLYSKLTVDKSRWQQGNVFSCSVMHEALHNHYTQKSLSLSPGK

Regarding “Human IgG1-Fc, chain B with D356C+T366S+L368A+Y407V (from UniProt P0DOX5 223-449)”, the Fc homodimer (%) in assay [1] amounted to 23%; in assay [2] it was 20%.
With “Human IgG1-Fc, chain B with D356C+T366S+L368A+Y407V+F405K (from UniProt P0DOX5 223-449)”, the Fc homodimer (%) was 10% in [3]; 18% and 13% in [4].
In turn, “Human IgG1-Fc, chain B with D356C+T366S+L368A+Y407V+F405K+K360E+Q347E (from UniProt P0DOX5 223-449)” returned a Fc homodimer (%) in assay [5] of 8%.
On to “Human IgG1-Fc, chain B with D356C+T366S+L368A+Y407V+F405K+Q347R (from UniProt P0DOX5 223-449)”, for which, in assay [6], the Fc homodimer (%) amounted to 12%.
For the substance “Human IgG1-Fc, chain B with D356C+T366S+L368A+Y407V+K360E+Q347E (from UniProt P0DOX5 223-449)”, the Fc homodimer (%) in assay [7] was found to be 24%.
Regarding “Human IgG1-Fc, chain B with D356C+T366S+L368A+Y407V+Q347R (from UniProt P0DOX5 223-449)”, the Fc homodimer (%) in assay [8] stood at 14%.
Consider “ScFv-Fc fusion protein (anti-Her2 single chain antibody-Fc), chain A with Y349C+T366W”, for which the ScFv-Fc homodimer (%) in assay [9] was 29% and 24%.
In [10], “ScFv-Fc fusion protein, chain A with T366W+F405K” returned a ScFv-Fc homodimer (%) of 5%.
“ScFv-Fc fusion protein, chain A with T366W+F405K+D399S” displayed a ScFv-Fc homodimer (%) in assay [11] of 6%.
“ScFv-Fc fusion protein, chain A with T366W+F405K+Y349D+S354D” displayed a ScFv-Fc homodimer (%) in assay [12] of 9%.
As for “ScFv-Fc fusion protein, chain A with T366W+K409A”, the ScFv-Fc homodimer (%) in [13] amounted to 15%.
Substance “ScFv-Fc fusion protein, chain A with T366W+K409A+K392D” showed a ScFv-Fc homodimer (%) in assay [14] of 7%.
Turning to “ScFv-Fc fusion protein, chain A with T366W+K409A+Y349D”, in [15], the ScFv-Fc homodimer (%) amounted to 14%.
On to “ScFv-Fc fusion protein, chain A with T366W+K409A+Y349D+S354D”, for which the ScFv-Fc homodimer (%) in assay [16] stood at 10%.
For “ScFv-Fc fusion protein, chain A with Y349C+T366W+F405K”, the ScFv-Fc homodimer (%) is 17% in assay [17], 9% in [18] and 10% in assay [19].
“ScFv-Fc fusion protein, chain A with Y349C+T366W+F405K+K360E+Q347E” displayed a ScFv-Fc homodimer (%) in assay [20] of 14%.
The substance “ScFv-Fc fusion protein, chain A with Y349C+T366W+F405K+Q347R” displayed a ScFv-Fc homodimer (%) in assay [21] of 14%.
On to “ScFv-Fc fusion protein, chain A with Y349C+T366W+K409A”, for which the ScFv-Fc homodimer (%) is 21% in assay [22], 13% in assay [23] and 10% in assay [24].
“ScFv-Fc fusion protein, chain A with Y349C+T366W+K409A+K360E+Q347E” showed a ScFv-Fc homodimer (%) in [25] of 24%.
The substance “ScFv-Fc fusion protein, chain A with Y349C+T366W+K409A+Q347R” had a ScFv-Fc homodimer (%) in [26] of 21%.
In turn, “ScFv-Fc fusion protein, chain A with Y349C+T366W+K409E” came in with a ScFv-Fc homodimer (%) in assay [27] of 25%.
“VhH-Fc fusion protein (camel single domain antibody variable region-Fc), chain B with D356C+T366S+L368A+Y407V+F405K” yielded a VhH-Fc homodimer (%) in assay [28] of 19%.
Regarding “VhH-Fc fusion protein, chain B with D356C+T366S+L368A+Y407V”, the VhH-Fc homodimer (%) in assay [29] was 27%.
“VhH-Fc fusion protein, chain B with T366S+L368A+Y407V+D399S+F405K” gave a VhH-Fc homodimer (%) in assay [30] of 13%.
In [31], “VhH-Fc fusion protein, chain B with T366S+L368A+Y407V+K409A+E357A” registered a VhH-Fc homodimer (%) of 7%.
In assay [32], “VhH-Fc fusion protein, chain B with T366S+L368A+Y407V+K409A+K392D” came in with a VhH-Fc homodimer (%) of 13%.
In assay [33], “VhH-Fc fusion protein, chain B with T366S+L368G+Y407A+K409A” displayed a VhH-Fc homodimer (%) of 7%.
